Measured values published in patent US20140140998A1 (LUDWIG INSTITUTE FOR CANCER RESEARCH, published 2014).
Changes are numbered by the printed parent chain. In names and notes the source's numbering stands. Values belong to the binder of their own block, whether it stands above or below them.

Experiments:
[1] = target: T1, tumor necrosis factor alpha converting enzyme (TACE), endogenous (human, UniProt P78536 215-824); assay: co-immunofluorescence (co-localisation) in PC-3U cells
T1 construct: whole, on cells; also called ADAM17
T1 sequence (P78536 215-824): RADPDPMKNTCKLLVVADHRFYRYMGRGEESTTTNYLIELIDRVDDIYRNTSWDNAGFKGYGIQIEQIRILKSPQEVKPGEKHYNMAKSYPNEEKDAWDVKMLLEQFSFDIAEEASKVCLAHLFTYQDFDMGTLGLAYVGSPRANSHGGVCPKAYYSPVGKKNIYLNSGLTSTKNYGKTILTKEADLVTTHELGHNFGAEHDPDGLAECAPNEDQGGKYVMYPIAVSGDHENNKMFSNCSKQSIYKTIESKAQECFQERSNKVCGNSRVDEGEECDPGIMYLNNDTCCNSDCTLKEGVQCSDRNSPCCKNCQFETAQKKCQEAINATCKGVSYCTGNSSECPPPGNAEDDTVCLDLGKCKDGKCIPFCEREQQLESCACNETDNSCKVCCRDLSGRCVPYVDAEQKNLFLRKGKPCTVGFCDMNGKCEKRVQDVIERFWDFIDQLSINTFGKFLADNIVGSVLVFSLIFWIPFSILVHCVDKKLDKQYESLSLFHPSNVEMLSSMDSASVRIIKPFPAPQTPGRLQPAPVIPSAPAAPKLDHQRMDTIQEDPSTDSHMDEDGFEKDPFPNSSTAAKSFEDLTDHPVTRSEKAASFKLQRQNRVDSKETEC
Protocol: Panel e: PC-3U cells were treated with or without TGFβ for 30 min as indicated. […] Their colocalization is shown by the yellow color, as shown in merged images. The images on the left are enlarged from the areas enclosed in white boxes in the images to the right. DAPI staining was performed to detect cell nuclei (blue).

[2] = target: Presenilin 1 (PS1), endogenous (human, UniProt P49768 1-467); assay: co-immunoprecipitation from transfected PC-3U cells

B1: type I receptor of transforming growth factor beta (TβRI), endogenous, full length (receptor)
chain: LQCFCHLCTKDNFTCVTDGLCFVSVTETTDKVIHNSMCIAEIDLIPRDRPFVCAPSSKTGSVTTTYCCNQDHCNKIELPTTVKSSPGLGPVELAAVIAGPVCFVCISLMLMVYICHNRTVIHHRVPNEEDPSLDRPFISEGTTLKDLIYDMTTSGSGSGLPLLVQRTIARTIVLQESIGKGRFGEVWRGKWRGEEVAVKIFSSREERSWFREAEIYQTVMLRHENILGFIAADNKDNGTWTQLWLVSDYHEHGSLFDYLNRYTVTVEGMIKLALSTASGLAHLHMEIVGTQGKPAIAHRDLKSKNILVKKNGTCCIADLGLAVRHDSATDTIDIAPNHRVGTKRYMAPEVLDDSINMKHFESFKRADIYAMGLVFWEIARRCSIGGIHEDYQLPYYDLVPSDPSVEEMRKVVCEQKLRPNIPNRWQSCEALRVMAKIMRECWYANGAARLTALRIKKTLSQLSQQEGIKM
notes: Endogenous receptor of human PC-3U prostate cancer cells, studied in cell lysates, cell fractions and fixed cells; also called TβRI-FL; ALK5
- binding result [1]: binds

- binding result [2]: no binding
B2: HA-tagged caE161A TβRI mutant (HA-ca E161A) (receptor)
chain: B1 chain with E128A, T171D
notes: Expressed by transient transfection in PC-3U cells; also called HA-E161A; E161A mutant; not shown: HA tag fused to the C-terminus
